# Reference: the DeepSol protein solubility set
# Assay: soluble on expression in E. coli; label from the status in PepcDB or PDB records
row,Sequence,soluble on expression in E. coli
1,SLIENSHVKKDDIWPSGGQMTVKDLTAKYTEGGNAILENISFSISPGQRVGLLGRTGSGKSTLLSAFLRLLNTEGEIQIDGVSWDSITLEQWRKAFGVIPQKVFIFSGTFRKNLDPYEQWSDQEIWKVADEVGLRSVIEQFPGKLDFVLVDGGCVLSHGHKQLMCLARSVLSKAKILLLDEPSAHLDPVTYQIIRRTLKQAFADCTVILCEARIEAMLECDQFLVIEENKVRQYDSILELYHYPADRFVAGFIGSPKMNFLPVKVTATAIDQVQVELPMPNRQQVWLPVESRDVQVGANMSLGIRPEHLLPSDIADVILEGEVQVVEQLGNETQIHIQIPSIRQNLVYRQNRVVLVEEGATFAIGLPPERCHLFREDGTACRRLHKEPGV,soluble
2,MHIRRDQYMNEYVWETCEELDKKIADRVRLIRKRRSISQEKLSKISNVSLGSIKRFETTGQISLLSLTKIAVALNIADDLRNIFTEIPYNSIEEVINERR,not soluble
3,MIETSLDFSGLNDIAKDLEALSRAENNKVLRDATRAGAEVLKEEVIDRAPVRTGKLKKNVVVVTQKSRRRGEISSGVHIRGVNPRTGNSDNTMKANNPRNAFYWRFVELGTANMPAHPFVRPAYDTREEEAASVAIARMNQAIDEVLSK,not soluble
4,MGSDKIHHHHHHMPYNATVLRIMIASPSDVAKERNIIRNIIYEWNTINSIDRKIVLDPVGWETHAHPDMSGRAQSIINKQILKDCDLLVAVFWTRLGTPTGKFISGTVEEIEEHLKSGKQAMIYFSRAPVYLESVDQDQYKALCDFRSLCQQKGLIETYESLEEFQHKFSRQISQKIIQNYSSLESTNNTLEVSFAPELPRLSDLGKDLLIEVASDSNGELICLPVMGGLMIETNNKQLADMGNARSEASWKSAISELIKYELMESLGGKGEVYRLTEKGYQVADHLGAP,not soluble
5,MGSDKIHHHHHHMTHQAATVHALNPATPEGLEVRLARTRAEVAAAQRIRYRVFYEEMGAKPTVAMQTLEQDFDDYDKHCDHLVVLADGDVVGTYRLIRRSAAQAVGRFYTAGEFDISPFLAVEGEILELGRSCVDARWRHRGTLQALWQGLAGYMVENDIRLLFGCGSLPGTDPEILAPQLAYLRDNHMAPPALRGRALDSAEKVDFAGIDVAWDARRVLASLPPLLKGYLRLGGVIGDGAVIDRPFNTTDVLVVVNAADIAGRYVKRFSA,not soluble
6,MRMAAMHSGGKTIQLNAGHYQAKIVTVGAGLAELTHHGRHVVIPHKPEEIPMAHLGKVLIPWPNRVTNGCYSYNGKVFQLAVNDPVSQTAIHGLLAWRDWQINYQSATEASLTIFLPPSYGYPFALISEVIYRLDAASGLHVLIRTQNIGDESAPYGAGAHPYLTCNLQSIDSCVLTLPASEELPAGRDFSASCLLGETRLDHAVKTATTPAEWEVRLTSPTQNMSTFLRSTQPWLQIYTGEKLSRKGLAVEPMSCPPDAFNSGIALIHLAPKAIHQLHFSIGCD,not soluble
7,MGSDKIHHHHHHMSVSSTIEWTEATWNPTTGCHKISPGCKNCYAERFAERWRGVAGHPYEQGFDVKTWHERLKMPLSWKKPRLIFVNSMSDLFLDDISEEFIKDVFNVMEEASWHQFQVLTKRPQRMLKIANSIKKWPSNIWAGVSIESQAWVWRSEILKEIPAKIRFLSCEPLLGSLTLSLDELHWIIVGGESGVGARPMNIEWVRDIREQCIQANVPFFFKQWGGIQKKKYGREIDGRTWDGFPETIVDKNTKQVSPVK,not soluble
8,MGSDKIHHHHHHMRSKGVMIPRIMSTQHPDNYSIPFFASSPILGGEDEITEAFYAFSVLGADEQMWDFEGKEVDEFVVKKLLERYPTFFKENILGEDLRLTPRVPNPSVEKAEAKLLLETLQGITRAADYARVFYLDNIAPIFEVILPMTTSLAEMLRVHELYRKIVSLSGEVIYDVTVKEWIGEFYPKEINVIPLFETKVALLKSGRIIREYIGRKRPEYLRVFFARSDPAMNYGLLSAVTYVKKALEQVGEVEEETSTPIYPIIGVGSPPFRGGMRPENVKKVLKEYPSVQTYTIQSSFKYDHPTKDVVKAVEIVKSKKREAPDPLDIPEFIQLYEIEYQKQLKILAPYIRNIVTRIPDRRKRKLHIGLFGYSRNVGGLSLPRVIKFTASLYSIGLPPELLGLNELSDNQLDSISEYYKNLYDDLEFAMRFFSFKVAERVGLRELSEKVKEFKPDIDDEYVREAELVFRGQGDVMKLAQIRGFLG,not soluble
9,MKTSYDDTRQHLLDTGYRIMAVKGFSGVGLNEILQSAGVPKGSFYHYFKSKEQFGQALLEDYFRVYLADMDQRFSAPGLNARERLMSYWQKWLDNACPPCDEQRCLVVKLSAEVADLSESMRITLRDGSDGIIERLVGCLGQGRDDGSLAPCDARHMASALYQLWLGASLLSKLHRSPGPLETAMQTTRSLLEI,soluble
10,MEPHLKIDVSSASGSTTTGATASTSEAPQDSQAQQTMPPPSSDWSNQFNSPEAEDMGPFVEQLLPFVRASAYNWFHLQAAKRRHFKEFDKKMCASEENAKLAELQNDRDELKVKWASRLLGKIKKDIQNDDKEAFISAINGSEPNKCIISVADQKGKMRRIDCLRQADKVWRLDLVTIILFKGIPLESTDGERLERSEACVHPLCINPFHMAISVRGLDVFMANYLKDVDTKITLTYPRNDELSDTVMVKQEPGEQTIVAPHAVLGTSSTHTRVWETNSERNAETIIITYDPQKACHTYFGGRATLAQQSLSAGNTYMVNKTAVDNNFFNAKRSVLCLPPPPIQNCFPYPIAGTSDSQQMDMSEDSNDGPSEKRSRDISSHDSPNSSTNDEVRRIVESGTEKLVLGSSIWAAPGQFSRTQQNQGAPGTSRQVRPLPDFQSQDSARSPGAFRSTAKPVCRMTVNTGNHGDVGVVVVDERNREHVIHAQHIVNALSSLRTTPSMRESPVGRKRMHPHTSNSFEFLNCNQEMNKNEGALGSDISPTHTAVSNLISRESSGYMASPTKFTTARGDTTSFSKIFQKIEEKHLQHNQPSTSYCNSQIQPPILSSKPVDSSVKLIAPVAVKPIMSGCNSIIPSPITTPRITPSFRMLEDDSLINVLGQLAHSNDGTTLNDSFIQHLIDTNSRSPLLSSGNAFSALSMGARIEFVGCSNGIGRSSKYCTGRPANSKCNVTSSSRAANQAPVSNTPQDPNAPKLPTDFSHALRNEKK,not soluble
11,GMGQQESTLGGAAGEPRSRGHAAGTSGGPGDHLHATPGMFVQHSTAIFSDRYKGQRVLGKGSFGEVILCKDKITGQECAVKVISKRQVKQKTDKESLLREVQLLKQLDHPNIMKLYEFFEDKGYFYLVGEVYTGGELFDEIISRKRFSEVDAARIIRQVLSGITYMHKNKIVHRDLKPENLLLESKSKDANIRIIDFGLSTHFEASKKMKDKIGTAYYIAPEVLHGTYDEKCDVWSTGVILYILLSGCPPFNGANEYDILKKVEKGKYTFELPQWKKVSESAKDLIRKMLTYVPSMRISARDALDHEWIQTYTKEQISVDVPSLDNAILNIRQFQGTQKLAQAALLYMGSKLTSQDETKELTAIFHKMDKNGDGQLDRAELIEGYKELMRMKGQDASMLDASAVEHEVDQVLDAVDFDKNGYIEYSEFVTVAMDRKTLLSRERLERAFRMFDSDNSGKISSTELATIFGVSDVDSETWKSVLSEVDKNNDGEVDFDEFQQMLLKLCGN,soluble
12,GMSMPNHPNLTTADAKKILNKFNCLDIAPILKPSEKESVRRALILITKLSDYQILGICADTADEGLLAMKTYSHALGYEVPIDLPVVEGPVYIKLNGKNGLCYLDSYAGHHRGVLVSCQSYYEGGINEMYGHLPLDLFV,soluble
13,MPGIIYEGKGTNMEYADVFDSLVGDLKDDVLSLQLTNFDDVNHSYKSDGKCSMSVKDFDGYAENMPVKNVEYNGQKYIFMRSISDDAQPSQVFISVDGDERGRKRGMLITSFCGILRMISTFDYQIANSVTAKIFKVLGEYSCEEEE,not soluble
14,MQLHEQIANISVTFNDIPRSDHSMTPTELCYFDDFATTLVVDSVLNFTTHKMSKKRRYLYQDEYRTARTVMKTFREQRDWTNAIYGLLTLRSVSHFLSKLPPNKLFEFRDHIVRFLNMFILDSGYTIQECKRYSQEGHQGAKLVSTGVWSRGDKIERLSGVVCLLSSEDEDSILAQEGSDFSVMYSTRKRCSTLWLGPGAYINHDCRPTCEFVSHGSTAHIRVLRDMVPGDEITCFYGSEFFGPNNIDCECCTCEKNMNGAFSYLRGNENAEPIISEKKTKYELRSRS,not soluble
